Measurements as given in PMC5779224 (2017).
Positions count from the first letter of the chain named. Like-named read-outs stand apart in the source and are kept apart here.

Columns and labels:
[1] = biological target: T1, AnkB_MBD (AnkB ANK repeats only, aa 28–827) (human, UniProt Q01484-2 28-827); test: ITC
T1 chain: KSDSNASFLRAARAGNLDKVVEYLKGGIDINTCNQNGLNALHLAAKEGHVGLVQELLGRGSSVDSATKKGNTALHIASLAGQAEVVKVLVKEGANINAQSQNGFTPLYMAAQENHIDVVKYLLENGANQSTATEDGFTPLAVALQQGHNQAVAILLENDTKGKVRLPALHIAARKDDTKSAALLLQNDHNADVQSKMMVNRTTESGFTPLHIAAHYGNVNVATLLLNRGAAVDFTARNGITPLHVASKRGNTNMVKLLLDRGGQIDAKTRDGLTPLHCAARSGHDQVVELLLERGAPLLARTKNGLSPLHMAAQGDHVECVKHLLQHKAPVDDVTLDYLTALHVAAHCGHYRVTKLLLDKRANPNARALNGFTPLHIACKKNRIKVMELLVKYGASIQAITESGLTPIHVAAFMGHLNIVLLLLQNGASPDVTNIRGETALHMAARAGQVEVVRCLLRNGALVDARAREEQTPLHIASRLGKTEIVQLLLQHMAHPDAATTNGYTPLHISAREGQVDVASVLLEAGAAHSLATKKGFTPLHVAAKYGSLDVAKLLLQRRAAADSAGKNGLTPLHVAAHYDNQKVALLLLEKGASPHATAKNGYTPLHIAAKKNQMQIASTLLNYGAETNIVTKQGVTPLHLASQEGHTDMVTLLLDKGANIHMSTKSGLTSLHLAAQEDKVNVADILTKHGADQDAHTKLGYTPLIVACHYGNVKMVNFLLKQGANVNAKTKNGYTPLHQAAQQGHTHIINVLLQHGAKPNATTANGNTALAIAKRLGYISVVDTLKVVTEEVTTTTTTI

AnkB_MBD Asn595Ala = biological target: T2, AnkB_MBD Asn595Ala (human, UniProt Q01484-2 28-827, Asn595Ala); test: ITC
T2 sequence: T1 chain with N568A

[2] = biological target: T3, AnkB 28–847 (MBD + partial AI-c) (human, UniProt Q01484-2 28-847); test: ITC
T3 chain: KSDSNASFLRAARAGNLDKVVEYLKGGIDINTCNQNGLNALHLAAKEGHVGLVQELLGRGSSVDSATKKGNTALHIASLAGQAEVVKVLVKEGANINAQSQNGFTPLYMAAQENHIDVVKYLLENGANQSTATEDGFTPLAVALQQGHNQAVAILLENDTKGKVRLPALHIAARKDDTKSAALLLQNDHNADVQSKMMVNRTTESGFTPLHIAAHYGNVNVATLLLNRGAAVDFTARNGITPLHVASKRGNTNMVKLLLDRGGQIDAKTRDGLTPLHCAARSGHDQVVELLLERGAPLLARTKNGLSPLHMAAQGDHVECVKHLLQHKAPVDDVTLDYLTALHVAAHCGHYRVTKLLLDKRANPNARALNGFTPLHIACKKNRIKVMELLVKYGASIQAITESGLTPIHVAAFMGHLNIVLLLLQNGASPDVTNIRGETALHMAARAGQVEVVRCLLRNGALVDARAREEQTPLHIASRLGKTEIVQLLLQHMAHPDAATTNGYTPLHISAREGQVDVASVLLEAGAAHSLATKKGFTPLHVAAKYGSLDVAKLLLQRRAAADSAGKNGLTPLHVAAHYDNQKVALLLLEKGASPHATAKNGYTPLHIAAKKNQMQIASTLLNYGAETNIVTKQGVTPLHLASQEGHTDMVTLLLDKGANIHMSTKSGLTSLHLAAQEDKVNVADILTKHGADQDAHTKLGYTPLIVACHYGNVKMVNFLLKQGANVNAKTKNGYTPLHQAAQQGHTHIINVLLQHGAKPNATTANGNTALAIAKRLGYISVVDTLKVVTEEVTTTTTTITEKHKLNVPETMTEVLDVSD

[3] = biological target: T4, AnkG 38–903 (MBD + AI-c + AI-b) (rat, UniProt O70511-1 38-903); test: ITC; too weak to be reliably fit
T4 chain: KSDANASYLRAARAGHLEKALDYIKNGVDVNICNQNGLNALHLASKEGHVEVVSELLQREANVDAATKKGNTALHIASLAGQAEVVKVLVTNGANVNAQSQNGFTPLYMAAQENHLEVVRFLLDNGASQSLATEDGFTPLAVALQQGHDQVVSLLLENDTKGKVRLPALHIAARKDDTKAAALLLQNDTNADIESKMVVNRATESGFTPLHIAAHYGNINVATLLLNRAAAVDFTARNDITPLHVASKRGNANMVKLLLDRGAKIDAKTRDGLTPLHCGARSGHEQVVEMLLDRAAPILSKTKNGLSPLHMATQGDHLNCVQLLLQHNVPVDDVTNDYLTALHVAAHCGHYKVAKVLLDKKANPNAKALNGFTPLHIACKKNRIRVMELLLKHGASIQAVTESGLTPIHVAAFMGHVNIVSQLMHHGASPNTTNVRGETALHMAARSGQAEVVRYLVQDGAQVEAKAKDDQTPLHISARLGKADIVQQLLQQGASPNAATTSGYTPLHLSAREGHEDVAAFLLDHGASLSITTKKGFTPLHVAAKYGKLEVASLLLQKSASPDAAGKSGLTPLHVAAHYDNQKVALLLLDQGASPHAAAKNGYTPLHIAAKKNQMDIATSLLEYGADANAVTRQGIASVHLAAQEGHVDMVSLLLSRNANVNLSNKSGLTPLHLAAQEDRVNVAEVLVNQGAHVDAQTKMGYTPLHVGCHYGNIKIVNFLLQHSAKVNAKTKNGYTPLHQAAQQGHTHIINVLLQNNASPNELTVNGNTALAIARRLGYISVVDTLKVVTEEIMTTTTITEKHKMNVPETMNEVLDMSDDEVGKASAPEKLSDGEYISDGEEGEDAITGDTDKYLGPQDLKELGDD

[4] = biological target: T5, AnkG 38–855 (AnkG MBD-AI-c protein; MBD + partial AI-c) (rat, UniProt O70511-1 38-855); test: ITC
T5 chain: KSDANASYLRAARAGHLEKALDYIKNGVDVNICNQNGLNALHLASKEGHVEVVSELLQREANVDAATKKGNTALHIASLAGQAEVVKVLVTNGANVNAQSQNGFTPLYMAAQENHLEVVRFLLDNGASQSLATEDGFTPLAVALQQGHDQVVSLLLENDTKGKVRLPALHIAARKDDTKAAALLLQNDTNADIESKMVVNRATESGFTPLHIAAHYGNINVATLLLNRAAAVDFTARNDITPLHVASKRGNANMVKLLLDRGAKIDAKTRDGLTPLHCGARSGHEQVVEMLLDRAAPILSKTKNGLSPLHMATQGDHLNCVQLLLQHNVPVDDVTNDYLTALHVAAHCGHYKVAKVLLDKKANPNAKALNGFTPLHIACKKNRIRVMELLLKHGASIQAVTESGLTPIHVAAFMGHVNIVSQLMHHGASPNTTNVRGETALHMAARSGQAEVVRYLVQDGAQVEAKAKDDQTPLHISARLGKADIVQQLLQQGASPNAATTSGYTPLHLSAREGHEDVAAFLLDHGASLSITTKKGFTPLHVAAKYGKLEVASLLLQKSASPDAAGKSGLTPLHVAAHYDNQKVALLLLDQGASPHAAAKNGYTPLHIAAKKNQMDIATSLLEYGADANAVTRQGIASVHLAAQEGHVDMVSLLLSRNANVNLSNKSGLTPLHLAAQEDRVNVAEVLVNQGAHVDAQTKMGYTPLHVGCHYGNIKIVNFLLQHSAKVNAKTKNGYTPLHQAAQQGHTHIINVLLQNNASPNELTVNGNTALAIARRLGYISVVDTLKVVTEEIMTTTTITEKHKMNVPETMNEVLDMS

[5] = biological target: T1, AnkB_MBD (AnkB ANK repeats only, aa …); test: ITC
[6] = biological target: T3, AnkB 28–847 (MBD + partial AI-c); test: ITC
[7] = biological target: T6, AnkB MBD 'site-2' mutant (Ile267Gln, Leu300Gln) (human, UniProt Q01484-2 28-847, Ile267Gln | Leu300Gln); test: ITC
T6 sequence: T3 chain with I240Q, L273Q

TEKHKLNVPETMTEVLDVSDEEGDD (domain or fragment) [AnkB_AI-c (aa 828–852)]
Kd [1]: 0.36 µM
Kd (AnkB_MBD Asn595Ala): 2.4 µM

B1: E-cadherin (aa 734–884) (domain or fragment)
chain: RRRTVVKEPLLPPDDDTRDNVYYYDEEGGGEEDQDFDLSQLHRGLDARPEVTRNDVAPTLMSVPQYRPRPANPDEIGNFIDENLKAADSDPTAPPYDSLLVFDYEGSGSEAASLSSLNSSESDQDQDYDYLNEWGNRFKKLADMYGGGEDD
Kd [2]: 0.78 µM
Kd [3]: ~45 µM
Kd [4]: 0.61 µM

CADQYWNEVAVIDAIPLAATEHDTMLEMSDMQVWSAGDHPPIVSEEDIS [AnkR/B_CT Chimera]
Kd [5]: 0.47 µM

EDLKELGDDSLPSSQFLDGMNYLRYSLEGGRS (domain or fragment) [AnkB_AI-b (aa 865–896)]
Kd [6]: 3.7 µM
Kd [7]: 8.5 µM
